Laboratory results published in PMC3984155.

Assays:
[1] = biological target: Litopenaeus vannamei Proliferating Cell Nuclear Antigen (Litopenaeus vannamei); assay: SEC; purified LvPCNA at 1 mg/ml on a Superdex 200 column, elution compared with known molecular-mass standards
[2] = biological target: Litopenaeus vannamei Proliferating Cell Nuclear Antigen (Litopenaeus vannamei); assay: crystal structure; X-ray, 3 Å, space group C2; crystals from 300 mM CaCl2, 100 mM sodium HEPES pH 7.5, 30% v/v PEG 400; molecular replacement

- stoichiometry N [1]: 3
- stoichiometry N [2]: 3
Substance: Litopenaeus vannamei Proliferating Cell Nuclear Antigen (natural protein)
